Consider 13 substances from PMC5814800.

This assay has as its target T25-ϕC31 gp3 (wild type) fusion protein. The assay is described as follows: bacterial two-hybrid (B2H) β-galactosidase assay. Conditions: parent: est. 0.14; read off a plot.
On to “wild-type ϕC31 integrase fused to T18 (Int-T18 fusion, pEY111) (from UniProt Q9T221) I582G”, for which the response (ΔOD420/min/ml) was determined as 0.037.
With “wild-type ϕC31 integrase fused to T18 (Int-T18 fusion, pEY111) (from UniProt Q9T221) I582L”, the response (ΔOD420/min/ml) was 0.15.
On to “wild-type ϕC31 integrase fused to T18 (Int-T18 fusion, pEY111) (from UniProt Q9T221) I420V”, for which the response (ΔOD420/min/ml) came to 0.13.
On to “wild-type ϕC31 integrase fused to T18 (Int-T18 fusion, pEY111) (from UniProt Q9T221) W526A”, for which the response (ΔOD420/min/ml) turned out to be 0.023.
Take “wild-type ϕC31 integrase fused to T18 (Int-T18 fusion, pEY111) (from UniProt Q9T221) I582A”: the response (ΔOD420/min/ml) was 0.027.
Then “wild-type ϕC31 integrase fused to T18 (Int-T18 fusion, pEY111) (from UniProt Q9T221) I420A; I582T”, with -0.009; and “wild-type ϕC31 integrase fused to T18 (Int-T18 fusion, pEY111) (from UniProt Q9T221) I582T”, with 0.068.
With “wild-type ϕC31 integrase fused to T18 (Int-T18 fusion, pEY111) (from UniProt Q9T221) I582V”, the response (ΔOD420/min/ml) amounted to 0.1.
With “wild-type ϕC31 integrase fused to T18 (Int-T18 fusion, pEY111) (from UniProt Q9T221) I420A”, the response (ΔOD420/min/ml) came to 0.019.
Take “wild-type ϕC31 integrase fused to T18 (Int-T18 fusion, pEY111) (from UniProt Q9T221) I420A; I582V”: the response (ΔOD420/min/ml) was -0.016.
“wild-type ϕC31 integrase fused to T18 (Int-T18 fusion, pEY111) (from UniProt Q9T221) I420V; I582V”: the response (ΔOD420/min/ml) is 0.021.
With “wild-type ϕC31 integrase fused to T18 (Int-T18 fusion, pEY111) (from UniProt Q9T221) W526R” the figure was 0.008; with “wild-type ϕC31 integrase fused to T18 (Int-T18 fusion, pEY111) (from UniProt Q9T221) W526F”, 0.21.
